Assay results taken from US20200223906A1 (Adimab, published 2020).

Legend:
[1] = target: RSV F protein of subtype A (strain A2) on recombinant mKate-RSV virus (Respiratory syncytial virus subtype A …, UniProt P03420 26-574); test: cell-based or functional assay
[2] = target: RSV F protein of subtype B (18537) on recombinant mKate-RSV virus (Respiratory syncytial virus subtype B …, UniProt P13843 26-574); test: cell-based or functional assay
[3] = target: T1, RSV F subtype B, furin-cleaved ectodomain stabilized in the prefusion conformation (DS-Cav1) (Respiratory syncytial virus subtype B); test: BLI, IgG on AHQ sensor, 100 nM antigen
T1 construct: extracellular domain; Trimeric soluble antigen; also called Prefusion subtype B

[4] = target: T2, RSV F subtype A, furin-cleaved ectodomain stabilized in the prefusion conformation (DS-Cav1) (Respiratory syncytial virus subtype A, UniProt P03420 26-524); test: BLI, IgG on AHQ sensor, 100 nM antigen
T2 construct: extracellular domain; Trimeric soluble antigen; also called Prefusion subtype A

Row | Binder | Neut IC50 (µg/ml) subtype A [1] [µg/mL] | Neut IC50 (µg/ml) subtype B [2] [µg/mL] | Kd [3] [nM] | Kd [4] [nM]
1 | ADI-18927 (antibody, V domains shown, full-length IgG from yeast) VH: QVQLVQSGAEVKKPGASVKVSCKASGYTFTDYFIHWVRQAPGEGLEWMGWVNPLSDNTKYSQKFQGRVTMSTDTSITTAYMYLSRLRFDDTAVYFCASQSSPYTPGALDVWGQGTTVTVSS VL: DIQLTQSPSSLPASVGDRVTITCRASQNIGNNLAWYQQKAGRAPKLLIYSASNFHSGVPSRFIGSGSGTVFTLTISSLQPEDFATYFCQQSFTPQFTFGPGTKVEIK | 0.022 | 0.067 | 2.99 | 3.58
2 | ADI-18880 (antibody, V domains shown, full-length IgG from yeast) VH: QVQLVQSGSEVKKPGAAVKVSCKASGYIFANFGVSWVRQAPGQGLEWMGWISAYNGNTNYAQKFQGRVIMTTDTSTSTAYMELRSLRSDDTAVYYCARDPPAYAATLMDVWGKGTTVTVSS VL: EIVLTQSPLSLPVTLGQSASISCRSSQSLEHSDTNTYLTWYQQRPGQSPRRLLYKVSNRDSGVPDRFSGSGSGTDFTLKISRVEAEDVGVYYCMQGTHWPPTFGQGTKVDIK | 0.041 | 0.055 | 0.304 | 0.255
3 | ADI-18904 (antibody, V domains shown, full-length IgG from yeast; also called Antibody Number 259; Ab # 259) VH: EVQLVESGSEVKKPGAAVKVSCKASGYIFANFGVSWVRQAPGQGLEWMGWISAYNGNTNYAQKFQGRVIMTTDTSTSTAYMELRSLRSDDTAVYYCARDPPAYAATLMDVWGKGTTVTVSS VL: DIVMTQSPLSLPVTLGQSASISCRSSQSLEHSDTNTYLTWYQQRPGQSPRRLLYKVSNRDSGVPDRFSGSGSGTDFTLKISRVEAEDVGVYYCMQGTHWPPTFGQGTKLEIK | 0.018 | 0.089 | 0.237 | 0.251
4 | ADI-18936 (antibody, V domains shown, full-length IgG from yeast) VH: EVQLLESGAEVKKPGASVRVSCKASGYTFTDYFMNWVRQAPGGGLEWMGWVNPLSGATKYAQKFQGRVTMTTDTSITTGYLDLRSLRVDDTAIYFCASQSSPYTPGAMGVWGQGTTVTVSS VL: DIQVTQSPSSLSASVGDRVTITCRASQSISGYLSWYQQKPGKAPNLLIYATSNLYSGVPSRFSGRDSGTDFTLTITSLQPEDFATYFCQLNSGALFTFGPGTKVEIK | 0.032 | 0.035 | 0.298 | 0.303
5 | ADI-18967 (antibody, V domains shown, full-length IgG from yeast; also called Antibody Number 315; Ab # 315) VH: QVQLVQSGAEVKKPGASVKVACKVSGSSLTELSIQWVRLPPGKRLEWLGAFDAEDGAPIYSPKFQGRVTMTEDRSTETAYMEVTSLRSEDTALYYCATPLPAGALDKWGQGTLVTVSS VL: DIQMTQSPSSLSASVGDRVTISCRASQTISRYLNWYQVKPGTAPKLLIYAASSLQTGVPSRFSASGSGADFTLTISSLQPEDFATYHCQQTYIIPYTFGQGTKVDIK | 6.74 | 3.65 |  | 0.809
6 | ADI-18879 (antibody, V domains shown, full-length IgG from yeast) VH: EVQLLESGGEVKKPGASVKVSCRASGYTFRNYGLTWVRQAPGQGLEWMGWISAYNGNTNYAQKFQGRVTLTTDTSTSTAYMELRSLRSDDTAVYFCARDVPGHGAAFMDVWGTGTTVTVSS VL: DIQLTQSPLSLPVTLGQPASISCRSSQSLEASDTNIYLSWFQQRPGQSPRRLIYKISNRDSGVPDRFSGSGSGTHFTLRISRVEADDVAVYYCMQGTHWPPAFGQGTKVDIK | 0.041 | 0.103 | 0.358 | 0.312
7 | ADI-18903 (antibody, V domains shown, full-length IgG from yeast) VH: EVQLVESGGEVKKPGASVKVSCRASGYTFRNYGLTWVRQAPGQGLEWMGWISAYNGNTNYAQKFQGRVTLTTDTSTSTAYMELRSLRSDDTAVYFCARDVPGHGAAFMDVWGTGTTVTVSS VL: ETTLTQSPLSLPVTLGQPASISCRSSQSLEASDTNIYLSWFQQRPGQSPRRLIYKISNRDSGVPDRFSGSGSGTHFTLRISRVEADDVAVYYCMQGTHWPPAFGQGTKLEIK | 0.036 | 0.118 | 0.272 | 0.324
8 | ADI-18930 (antibody, V domains shown, full-length IgG from yeast) VH: QVQLVQSGAEVKKPGSSVKVSCKASGGTFSGYHISWVRQAPGQGLEWMGGIIHLFGTVNYAPKFQGRVTITADASTGTAYMELNSLMSEDTAVYYCARDAYEVWTGSYLPPFDYWGQGTLVTVSS VL: EIVLTQSPGTLSLSPGERVTLSCRASQTVTSSYLAWYQQKPGQAPRLLIYGAFTRATDIPDRFSGSGSGTDFTLTISRLEPEDSAVYYCQQYGSSFLTFGGGTKVDIK | 0.013 | 0.051 | 0.372 | 0.387
9 | ADI-18882 (antibody, V domains shown, full-length IgG from yeast) VH: QVQLVQSGAEVKKPGSSVRVSCKASGGTFRGYGLSWVRQAPGQGLEWMGGITHLFGTVSYAPKFQGRLTITADASTGTAYMELSSLISEDTAVYFCARDAYEVWTGSYLPPFDYWGQGTMVTVSS VL: DIVMTQSPGTLSLSPGERVTLSCRASQIIPSSYLAWYQQKPGQAPRLLIYGAFTRATDIPDRFSGSGSGTDFTLTISRLEPEDFAVYYCQQYGSSFLTFGGGTKVEIK | 0.041 | 0.057 | 0.476 | 0.427
10 | ADI-18953 (antibody, V domains shown, full-length IgG from yeast) VH: QVQLVQSGAEVKKPGSSVKVSCKASGGTFSGYAINWVRQAPGQGLEWMGGIIHIFGTVNYAPKFQGRLTITADASTGTAYMELSSLMSEDTALYYCARDAYEVWTGSYLPPFDYWGQGTLVTVSS VL: ETTLTQSPGTLSLSPGERVTLSCRASQTVTSNYLAWYQQKPGQAPRLLIYDAFTRATGVPARFSGSGSGTDFTLTISRLEPEDFAVYYCQQYGSSFLTFGGGTKVEIK | 0.034 | 0.022 | 0.421 | 0.513
11 | ADI-18932 (antibody, V domains shown, full-length IgG from yeast) VH: QVQLQESGPGLVRPSQTLSLTCSASGAAINSGDYYWSWIRQAPGRGLEWIGSISNRGVTDYNPSLKSRVIISADTSKNQFSLRLTSVTATDTAVYYCARDLGTLAFDPYYYYGIDVWGQGTTVTVSS VL: DIRMTQSPATLSLSPGERATLSCRASQSVSRHLAWYQQKPGQAPRLLIYDASYRVTGVPDRFSGSGSGTDFTLTISSLESEDFAIYFCQQRSTWPTFGQGTKVEIK | 0.184 | 0.351 | 1.39 | 0.917
12 | ADI-18937 (antibody, V domains shown, full-length IgG from yeast; also called Antibody Number 290; Ab # 290) VH: QVQLQESGPGLVKPSQTLSLTCTVSGPSISAGDYNWNWIRQAPGKGLEWVGYIDYRGLTHYNPSLKGRLSILMDRSANQFSLELNSVTAADTAVYYCARDVGVYSGYDVFHYYGMDVWGQGTTVTVSS VL: ETTLTQSPVTLSLSPGERATLSCRASQYVRNNYLAWYQHKPGQAPRLLIYSASSRVTGTPDRFSGSGSGTDFTLTISRLEPEDFAVYYCQQYGGSPPVTFGPGTKVDIK | 0.084 | 0.508 | 0.273 | 0.289
13 | ADI-18875 (antibody, V domains shown, full-length IgG from yeast; also called Antibody Number 232; Ab # 232) VH: QVQLQQWGAGLLKPSETLSLTCAVYGGSFSGYSWSWIRQTPGKGLEWIGEINHRGSTNYNPSLKSRVTMSVDTSQNQISLRVTSVTAADTAVYFCAGTNYGEVNTSNQYFFGMDVWGQGTTVTVSS VL: DIQVTQSPSSLSASVGDRVTITCRASQSIGTYLNWYQQKPGKPPKLLIYAASNLESGVPSSFSGSGSGTHFTLTISSLQPEHFATYYCQQSYSTPLTFGGGTKVEIK | 0.04 | 0.035 | 0.764 | 0.736
14 | ADI-18939 (antibody, V domains shown, full-length IgG from yeast; also called Antibody Number 292; Ab # 292) VH: QVQLQQWGAGLLKPSETLSLTCAVYGGSFSGYSWSWIRQSPGKGLEWIGEINHRGSTNYNPSLKSRVTISVDTSKNQFSLKLSSVTAADTAVYYCAGTNYGEVNTSNQYFFGMDVWGQGTTVTVSS VL: DIRLTQSPSSLSASVGDRVTITCRASQSITTYLNWYQQKPGKAPKLLIYAASNLESGVPSSFSGSGFGTDFTLTISSLQPDDFATYYCQQSYSAPLTFGGGTKVDIK | 0.018 | 0.038 | 0.56 | 0.574
15 | ADI-18921 (antibody, V domains shown, full-length IgG from yeast) VH: QVQLVQSGSEVKKPGASVRLSCKVAGYSLSELSMHWVRQSPGKGLEWLGAFDHEDAEAIYAPRFQGRITMTADTSTDTAYMELSSLRSEDTAVYYCATPTPVGATDYWGQGTLVTVSS VL: DIQMTQSPSSLSASVGDRVTITCRASQSISSYLNWYQQKPGKAPKLLIYAASSLQRGGPSRFSGSGSGTDFTLTISSLQPEDFATYYCQQSYIIPYTFGQGTKVDIK | 1.7 | 1.17 |  | 5.75
16 | ADI-18928 (antibody, V domains shown, full-length IgG from yeast) VH: QVQLVQSGAEVKRPGSSVRVSCKASGGTFRKYAISWVRQARGQGLEWMGGIIPMSGPPSYAQKFQGRVTITADESTSTVYMELSSLRFEDTAVYFCARDIEWFVLMDPITSYYPMDVWGQGTTVTVSS VL: QSVVTQEPSLTVSPGGTVTLTCGSSTGGVTSGHHTYWFQQKPGQAPRTLIYDTTNTHSWTPARFAGSLLGGKAALTLSGAQPEDEADYYCLLSYSGARPVFGGGTKLTVL | 0.034 | 0.062 | 0.515 | 0.449
17 | ADI-18935 (antibody, V domains shown, full-length IgG from yeast) VH: QVQLQESGPGLVKPSQTLSLTCTVSGRLLSSGDYYWSWIRQSPGRGLEWIGYVYHSGTTSYNPSLKSRITMTVDTSKNQFNLRLTSVTAADTAVYYCARDLGYSSSSPAFYYGIDFWGPGTMVTVSS VL: EIVLTQSPATLSLSPGQRATLSCRASQSVGNYLAWYQQKPGQAPRLLIYDASNRVTGIPARFSGSGSGTDFTLTISRLESEDFAVYYCQQRSNGVLTFGGGTKVDIK | 0.779 | 0.355 | 0.582 | 0.66
